Results taken from patent EP2216341A1, “Transferrin variants and conjugates” (Novozymes Biopharma UK Limited, priority 2009, dated 2010).

Key:
[1] = system: K562 erythroleukemic cells; experiment: 55Fe uptake from labeled diferric transferrin in erythroleukemic K562 cells; format: cell-based, human; details: 25 minutes at 37°C
Protocol: Human plasma-derived apo-transferrin (Calbiochem 616419, tissue culture grade, pyrogen-free) is supplied lyophilised from 10mM phosphate buffer, pH7.4. The transferrin mutein is expressed, purified and quantified as described above.
For iron-55 uptake from labeled diferric transferrin, K562 erythroleukemic cells, cultured in RPMI cell culture medium under standard conditions (bicarbonate-buffered, 5% (v/v) CO2, antibiotics, 10% (v/v) fetal calf serum) are washed with serum-free medium containing HEPES-buffer and 1 mg/ml of bovine serum albumin and used at a concentration of 10 million cells/ml in this medium. The samples tested are prepared as equimolar concentrations of apo-transferrin mutein. Apo-transferrin mutein is loaded with iron according to a standard procedure (Bates and Schlabach, J Biol Chem, 248, 3228-3232, 1973) using ferric nitrilotriacetate as iron source. Typically 50µl of 1 M NaClO4 is added to 450µl of the transferrin mutein stock-solution (pH is alkaline to neutral). The ^55Fe -NTA-loading-buffer is prepared by mixing 8.5µl 50mM NTA (pH 8.25), 18.9µl 0.1M Tris, 98.8µl Millipore-purified water and 7.5µl ^55FeCl3 in 0.5 N HCl (NEN products). 500µl of transferrin mutein is carefully mixed (dropwise) with the ^55Fe -NTA-loading-buffer and then 310µl of 5mM Hepes. NaOH/0.1M NaClO4 is added. The mixture is incubated at 4°C for 60 min following which it is deslated on a PD-10 column (containing Sephadex G-25) and dialysed. The PD-10 column is equilibrated with 5ml of equilibration buffer (5mM Hepes/NaOH, 0.1M NaClO4, 0.1 g BSA (Amresco)) then washed three times with 5ml of wash buffer (5mM Hepes/NaOH, 0.1M NaClO4). […]
Increasing concentrations of human plasma transferrin or the transferrin mutein sample (0, 25, 100, 200, 400, 800, 1600 nM), labeled with ^55Fe, are mixed with 25 µl of medium. […] The lysates are neutralized with 1 M HCl after overnight lysis, mixed with Readysolv Scintillation cocktail and counted in the Packard Liquid Scintillation Counter. […]

[2] = target: T1, transferrin receptor 1 (TfR1) (Homo sapiens, UniProt P02786); experiment: Transferrin receptor 1 binding by Surface Plasmon Resonance (SPR, Biacore); details: fluorescein conjugated sample
T1 construct: purchased AbD Serotec 9110-300
Source text: The receptor binding capability of the recombinant transferrin variants can be determined by Surface Plasmon Resonance (SPR) analysis. The binding activity of a transferrin sample to a transferrin receptor can be measured using surface plasmon resonance (SPR) a non-invasive optical technique in which the SPR response is a measure of change in mass concentration at the detector surface as molecules bind or dissociate. A sample is sent onto the surface of the sensor chip via a micro flow system at a constant flow rate. In this analysis, if the transferrin sample is able to bind to the Transferrin Receptor the mass on the surface sensor chip is increased due to binding between Transferrin Receptor and Transferrin molecules creating a surface plasmon wave, and a shift of the SPR signal proportional to the binding quantity can be detected as a change in the resonance unit (RU). […]
The binding capacity of human serum transferrin to human trabnsferrin receptor 1 may be measured by SPR. […]
The receptor binding capability of the recombinant transferrin variants was assessed by Surface Plasmon Resonance (SPR) analysis. The binding activity of a transferrin sample to transferrin receptor can be measured using surface plasmon resonance (SPR) a non-invasive optical technique in which the SPR response is a measure of change in mass concentration at the detector surface as molecules bind or dissociate. […]

T1 sequence (P02786 whole entry): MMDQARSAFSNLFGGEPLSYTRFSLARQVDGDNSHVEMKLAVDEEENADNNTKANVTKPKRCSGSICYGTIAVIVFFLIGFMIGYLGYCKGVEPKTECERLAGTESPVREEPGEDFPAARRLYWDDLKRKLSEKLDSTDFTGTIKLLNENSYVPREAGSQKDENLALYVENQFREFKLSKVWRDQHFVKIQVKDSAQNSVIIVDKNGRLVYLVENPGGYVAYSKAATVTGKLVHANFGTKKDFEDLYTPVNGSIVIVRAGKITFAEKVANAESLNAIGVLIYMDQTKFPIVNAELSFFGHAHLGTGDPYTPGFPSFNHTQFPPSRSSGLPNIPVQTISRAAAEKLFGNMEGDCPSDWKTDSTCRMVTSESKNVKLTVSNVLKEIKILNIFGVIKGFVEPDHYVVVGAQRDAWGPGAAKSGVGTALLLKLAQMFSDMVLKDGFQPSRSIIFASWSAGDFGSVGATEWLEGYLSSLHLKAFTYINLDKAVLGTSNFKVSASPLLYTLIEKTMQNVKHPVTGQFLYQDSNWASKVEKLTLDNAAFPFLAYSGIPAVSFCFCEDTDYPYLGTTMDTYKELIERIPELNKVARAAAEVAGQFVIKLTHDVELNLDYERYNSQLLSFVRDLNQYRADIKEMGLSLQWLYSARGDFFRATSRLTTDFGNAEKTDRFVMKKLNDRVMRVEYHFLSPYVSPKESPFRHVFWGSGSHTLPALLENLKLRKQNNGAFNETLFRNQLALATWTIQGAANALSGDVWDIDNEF

B1: Fluorescein conjugated thio-transferrin (S28C, S415A, T613A): Thiotransferrin (S28C, S415A, T613A) conjugated with fluorescein (conjugate, UniProt P02787 20-698, looked up, variant S28C S415A T613A)
Serotransferrin: VPDKTVRWCAVSEHEATKCQSFRDHMKCVIPSDGPSVACVKKASYLDCIRAIAANEADAVTLDAGLVYDAYLAPNNLKPVVAEFYGSKEDPQTFYYAVAVVKKDSGFQMNQLRGKKSCHTGLGRSAGWNIPIGLLYCDLPEPRKPLEKAVANFFSGSCAPCADGTDFPQLCQLCPGCGCSTLNQYFGYSGAFKCLKDGAGDVAFVKHSTIFENLANKADRDQYELLCLDNTRKPVDEYKDCHLAQVPSHTVVARSMGGKEDLIWELLNQAQEHFGKDKSKEFQLFSSPHGKDLLFKDSAHGFLKVPPRMDAKMYLGYEYVTAIRNLREGTCPEAPTDECKPVKWCALSHHERLKCDEWSVNSVGKIECVSAETTEDCIAKIMNGEADAMSLDGGFVYIAGKCGLVPVLAENYNKADNCEDTPEAGYFAIAVVKKSASDLTWDNLKGKKSCHTAVGRTAGWNIPMGLLYNKINHCRFDEFFSEGCAPGSKKDSSLCKLCMGSGLNLCEPNNKEGYYGYTGAFRCLVEKGDVAFVKHQTVPQNTGGKNPDPWAKNLNEKDYELLCLDGTRKPVEEYANCHLARAPNHAVVTRKDKEACVHKILRQQQHLFGSNVADCSGNFCLFRSETKDLLFRDDTVCLAKLHDRNTYEKYLGEEYVKAVGNLRKCSTSSLLEACTFRRP
modifications: fluorescein conjugate
Specific iron ptake Bmax ([1]; 55Fe-labeled sample 0-1600 nM, specific uptake (unspecific binding with hundredfold excess unlabeled diferric transferrin accounted for)): 2430±125 fmol^55Fe/10^6 cells 25min
Total Iron Uptake Bmax ([1]; 55Fe-labeled sample 0-1600 nM, total uptake): 3294±170 fmol^55Fe/10^6 cells x 25min
Kd ([1]; specific uptake, read-out: Specific iron ptake Kd x): 154 ± 32 nM
ability to bind to transferrin receptor 1 (measured by SPR) [2]: able to bind to transferrin receptor 1
